The record followed here is patent US6177557, “High affinity ligands of basic fibroblast growth factor and thrombin” (NeXstar Pharmaceuticals, Inc.).

Bounds are passed on as bounds.

Data set [1] deals with T1, thrombin (alpha) (human, UniProt P00734;P00734 P00734:328-363,P00734:364-622). In words: filter; 50 mM Tris pH 7.5, 100 mM NaCl, 1 mM MgCl2, 37 C.
The target of data set [2] is T2, basic fibroblast growth factor (bFGF) (UniProt P09038 P09038:135-288). In words: filter; PBS, 0.01% HSA, 1 mM DTT, 37 C; +/-0.3. The following applies: tags: Bachem California, 18 kDa, 154 aa; 125I-labeled for receptor assays. The method, then: This affinity screening allowed identification of those ligands with highest affinity for bFGF. Binding of a group of these ligands was analyzed over a range of bFGF concentrations (FIG. 5) and their dissociation constants.(Kd's) were determined as described (Jellinek et al. (1993) Proc. Natl. Acad. Sci. USA 90:11227–11231) (Table IX). RNA concentrations were determined from their absorbance reading at […] (and were typically <100 pM). Binding reactions were done at 37° C. in phosphate buffered saline containing 0.01% human serum albumin and 1 mM DTT.

Data set [3] has as its target T2, basic fibroblast growth factor (bFGF). In words: filter; PBS. The following applies: tags: Bachem California, 18 kDa, 154 aa; 125I-labeled for receptor assays; label: 32P. The method, then:
(§1) In order to eliminate higher order structures, all DNA solutions were heated to 90° C. in PBS for 2–3 minutes and cooled on ice prior to incubation with protein. Relative binding affinity of individual ligands to bFGF cannot be predicted from sequence information. The majority of sequence isolates were therefore screened for their ability to bind to bFGF by measuring the fraction of radiolabeled DNA bound to nitrocellulose filters following incubation with 1 nM protein. […] Binding of these select isolates was then analyzed in more detail.

In data set [4] the target is vascular endothelial growth factor (VEGF) (UniProt P15692-4 P15692-4:27-191). In words: filter; specificity, data not shown. Conditions: chain copies: 2; label: 32P.
Another data set deals with acidic FGF (UniProt P05230 P05230:16-155). In words: filter; specificity, data not shown. Conditions: label: 32P.
For the next data set, the target named is antithrombin III (UniProt P01008 P01008:33-464). In words: filter; specificity, data not shown. Conditions: label: 32P.
Data set [5] concerns the target T1, thrombin (alpha). In words: filter; specificity, data not shown.
The target in data set [6] is T2, basic fibroblast growth factor (bFGF). In words: filter. Conditions: tags: Bachem California, 18 kDa, 154 aa; 125I-labeled for receptor assays. The method, then:
as §1
Those ligands are M225, M19, m234, M235, and D12 (SEQ ID NOS:359, 353, 387, 360, 332). The minimum size of the region necessary for binding was determined to be 35 bases for M225, M19 and D12 (See Truncations, Table XXI M225t3 (SEQ ID NO:364), M19t2 (SEQ ID NO:365), D12t2 (SEQ ID NO:341)). The ligand with the smallest essential sequence, m234, was isolated from Family 2, Experiment 3 and contains 24 nucleotides (m234t2 (SEQ ID NO:391)). The truncated ligands were tested for binding to bFGF. After truncation, ligands M225t3, M19t2, D12t2, M235t2, and m234t2 have kd values of 0.7 nM, 1 nM, 1 nM, 1 nM, and 6 nM respectively (Table XXII). All five of the truncated molecules lost some of their affinity for bFGF in comparison to the full length ligands. The binding affinity is regained when an additional G-C base pair is added to the blunt end stem of M225t3. This molecule is termed M225t3GC (SEQ ID NO:443). The binding of M225t3GC is 0.2 nM compared to 0.7 nM for M225t3 without the additional base pair (Table XXII).

Sequence of antithrombin III (P01008 33-464, one chain of several): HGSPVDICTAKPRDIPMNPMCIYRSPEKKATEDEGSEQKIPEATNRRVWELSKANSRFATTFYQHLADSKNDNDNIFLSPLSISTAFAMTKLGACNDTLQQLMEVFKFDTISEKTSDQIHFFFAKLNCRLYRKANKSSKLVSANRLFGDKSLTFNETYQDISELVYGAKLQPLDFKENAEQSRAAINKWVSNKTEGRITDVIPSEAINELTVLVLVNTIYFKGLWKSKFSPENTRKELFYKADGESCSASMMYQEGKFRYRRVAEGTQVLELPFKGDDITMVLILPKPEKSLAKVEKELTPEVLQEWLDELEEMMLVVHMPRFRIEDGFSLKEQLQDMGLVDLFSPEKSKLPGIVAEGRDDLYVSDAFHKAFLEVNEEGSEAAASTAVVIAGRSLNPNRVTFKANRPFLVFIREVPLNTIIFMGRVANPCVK
Sequence of acidic FGF (P05230 16-155, one chain of several): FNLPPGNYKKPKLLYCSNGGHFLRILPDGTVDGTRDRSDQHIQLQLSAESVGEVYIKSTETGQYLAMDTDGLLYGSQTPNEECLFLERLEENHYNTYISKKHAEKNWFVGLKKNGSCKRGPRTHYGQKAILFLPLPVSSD
T2 sequence (P09038 135-288, one chain of several): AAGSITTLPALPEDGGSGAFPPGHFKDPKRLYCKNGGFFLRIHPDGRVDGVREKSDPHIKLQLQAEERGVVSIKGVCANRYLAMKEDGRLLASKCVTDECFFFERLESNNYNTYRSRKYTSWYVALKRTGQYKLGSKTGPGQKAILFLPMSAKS
Sequence of vascular endothelial growth factor (VEGF) (P15692 other isoform, or with tags, fused parts or gaps): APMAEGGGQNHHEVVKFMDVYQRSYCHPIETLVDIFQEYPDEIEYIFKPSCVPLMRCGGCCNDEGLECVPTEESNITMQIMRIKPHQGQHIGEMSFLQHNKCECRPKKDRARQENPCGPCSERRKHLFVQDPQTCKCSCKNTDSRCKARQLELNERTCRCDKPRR

B1: 60-18 (ssDNA)
DNA: AGATGCCTGTCGAGCATGCTCTTTGGAGACAGTCCGTGGTAGGGCAGGTTGGGGTGACTTCGTGGAAGAAGCGAGACGGTGTAGCTAAACTGCTTTGTCGA
One may read the Kd as the equilibrium constant for the complex coming apart. For B1, in the data set with thrombin (alpha) [1], binding was put at a Kd of 0.92 nM.

B2: 2'-NH2 54A (ssRNA)
RNA: GGGAGACAAGAAUAACGCUCAAACUGUUGUGUGGAAGACAGCGGGUGGUUGAUUCGACAGGAGGCUCACAACAGGC
modifications: 2'-NH2 pyrimidines
In turn, B2 gave a Kd in data set [2] of 1.7 nM.

B3: M235 (ssDNA)
DNA: GGGAGGACGATGCGGGGCTCTGCAAAGGACACAGGTCCTACGCATCAGACGACGACGGGGA
In turn, B3 gave a Kd in data set [3] of 0.2 nM.

B4: 5A (ssRNA)
RNA: GGGAGCUCAGAAUAAACGCUCAAAUCUCCUCCCGUCGAAGCUAACCUGGCCACUUCGACAUGAGGCCCGGAUCCGGC
B4: the Kd (in data set [4]; in the data set with acidic FGF; with antithrombin III; in the data set with thrombin (alpha) [5]) was above 300 nM in each case.

B5: 60-7 (ssDNA)
DNA: AGATGCCTGTCGAGCATGCTGGCGGCGTTGGTGTAGTGGCGCACTGTGGTTGGGCGGAGAGGCTAGGAGTGCATGATGCCGTAGCTAAACTGCTTTGTCGACGGG
Take B5: binding in the data set with thrombin (alpha) [1] was characterised by a dissociation constant (Kd) of 2.5 nM.

In the data set with thrombin (alpha) [1], CAGTCCGTGGTAGGGCAGGTTGGGGTGACTTCGTGGAA (ssDNA) [60-18(38)] showed a Kd of 1.9 nM.

B6: 30-8 (ssDNA)
DNA: AGATGCCTGTCGAGCATGCTGTGAATAGGTAGGGTCGGATGGGCTACGGTGTAGCTAAACTGCTTTGTCGACGGG
As to B6, binding with thrombin (alpha) [1] was put at a Kd of 0.4 nM. As for GCGGGGCTCTGCAAAGGACACAGGTCCTACGCATCAG (ssDNA) [M235t2], in data set [6], the affinity, expressed as Kd, was 1 nM. The molecule GGCGGGGCTACGTACCGGGGCTTTGTAAAACCCCGCC (ssDNA) [M225t3GC] gave a Kd in data set [6] of 0.2 nM.

B7: M225 (ssDNA)
DNA: GGGAGGACGATGCGGGGCTACGTACCGGGGCTTTGTAAAACCCCGCAGACGACGACGGGGA
With B7, the affinity in data set [3], expressed as Kd, was 0.1 nM. That is a sub-nanomolar value.

B8: 26A (ssRNA)
RNA: GGGAGCUCAGAAUAAACGCUCAACGUCAGAAGGCAACGUAUAGGCAAGCACACUUCGACAUGAGGCCCGGAUCCGGC
As to B8, the Kd (in data set [4]; with acidic FGF; with antithrombin III; in the data set with thrombin (alpha) [5]) was above 300 nM throughout.

B9: 30-16 (ssDNA)
DNA: AGATGCCTGTCGAGCATGCTGCCGCTACGAGGGTAGGTGTGGATGCTGCCGTAGCTAAACTGCTTTGTCGACGGG
In the data set with thrombin (alpha) [1], B9 had a Kd of 9.4 nM.

B10: 60-27 (ssDNA)
DNA: AGATGCCTGTCGAGCATGCTGGCGTCCGATGATTCAGGTCGTGGTAGGCATTGAGGGATGGGGTCCTGTGGGACTGGCCTGTAGCTAAACTGCTTTGTCGACGGG
For the molecule B10, binding with thrombin (alpha) [1] was characterised by a dissociation constant (Kd) of 0.96 nM. The molecule CGAGGAGCTTTAGCGCCACAGGTT (ssDNA) [m234t2] had a Kd in data set [6] of 6 nM. This counts as single-digit nanomolar.

B11: 2'-NH2 52B (ssRNA)
RNA: GGGAGGACGAUGCGGGGAGGGGCAGGUUCGAUGCGGGAGCGACUGACCACGAGAAAUGUGCGGGUCAGACGACUCGCCCGA
modifications: 2'-NH2 pyrimidines
B11: in data set [2], the Kd is 2.3 nM.

B12: 2'-NH2 58A (ssRNA)
RNA: GGGAGACAAGAAUAACGCUCAAUUAACGGCGUGGUCCGAGGGUGGCGAGUACUUCGACAGGAGGCUCACAACAGGC
modifications: 2'-NH2 pyrimidines
As for B12, binding in data set [2] was put at a Kd of 1.4 nM.

B13: 7A (ssRNA)
RNA: GGGAGCUCAGAAUAAACGCUCAAUCGGCGAGCUAACCAAGACACUCGCUGCACUUCGACAUGAGGCCCGGAUCCGGC
B13: the Kd (in data set [4]; with acidic FGF; with antithrombin III; with thrombin (alpha) [5]) was above 300 nM each time.

B14: M19 (ssDNA)
DNA: GGGAGGACGATGCGGGGCTATGTAAATTACTGCTGTACTACGCATCAGACGACGACGGGGA
In data set [3], B14 came in with a Kd of 0.3 nM.

B15: 30-6 (ssDNA)
DNA: AGATGCCTGTCGAGCATGCTACACCCGTGGTAGGGTAGGATGGGGTGGTCGTAGCTAAACTGCTTTGTCGACGGG
Molecule B15 displayed a Kd with thrombin (alpha) [1] of 1.2 nM.

B16: m224 (ssDNA)
DNA: GGGAGGACGATGCGGCACCGAGGAATAACTGACGCCAGGCTGGCGCAGACGACGACGGGGA
As to B16, in data set [3], the dissociation constant (Kd) amounted to 1.5 nM.

B17: m206 (ssDNA)
DNA: GGGAGGACGATGCGGACCTGGTGGCTGTGCTTATGTCCCCCTCATCAGACGACGACGGGGA
B17 returned a Kd in data set [3] of 1.8 nM.

B18: 2'-NH2 53A (ssRNA)
RNA: GGGAGACAAGAAUAACGCUCAAUGAGGAUCGGAUGGGGAGCAGGCGGAGGAAUUCGACAGGAGGCUCACAACAGGC
modifications: 2'-NH2 pyrimidines
On to B18, for which, in data set [2], the dissociation constant (Kd) was 1.5 nM. In turn, AGGCCAGGGCTATGCAAATCGCGGCGCCTATGGCC (ssDNA) [D12t2] displayed a Kd in data set [6] of 1 nM.

B19: 30-14 (ssDNA)
DNA: AGATGCCTGTCGAGCATGCTGTTGTGGTAGGGTTAGGGATGGTAGCGGTTGTAGCTAAACTGCTTTGTCGACGGG
B19 registered a Kd with thrombin (alpha) [1] of 1 nM.

B20: 30-35 (ssDNA)
DNA: AGATGCCTGTCGAGCATGCTGGGAGTGGTAGGAGTAGGGTTGGAGCCGTAGTAGCTAAACTGCTTTGTCGACGGG
B20 displayed a Kd with thrombin (alpha) [1] of 1.4 nM.

B21: 2'-NH2 49A (ssRNA)
RNA: GGGAGACAAGAAUAACGCUCAAAUGGUGUGUGGAAGACAGUGGGUGGUUGCAUUCGACAGGAGGCUCACAACAGGC
modifications: 2'-NH2 pyrimidines
Take B21: in data set [2], the Kd was 1.4 nM.

B22: m234 (ssDNA)
DNA: GGGAGGACGATGCGGCCCGAGGAGCTTTAGCGCCACAGGTTTGTGCAGACGACGACGGGGA
Take B22: the equilibrium dissociation constant (Kd) in data set [3] was 0.7 nM. On to GCGGGGCTATGTAAATTACTGCTGTACTACGCATC (ssDNA) [M19t2], for which, in data set [6], the Kd amounted to 1 nM.

B23: 2'-NH2 47B (ssRNA)
RNA: GGGAGGACGAUGCGGAGGGUGGCUGGGAGGACCCGCGGUGAAUCGGUAGCACAGUGAUGUUCGGUCAGACGACUCGCCCGA
modifications: 2'-NH2 pyrimidines
Regarding B23, the Kd in data set [2] came to 2.9 nM.

B24: M17 (ssDNA)
DNA: GGGAGGACGATGCGGGGGGCTTTGCAAAAATTGTTAAATCTACCCCAGACGACGACGGGGA
The molecule B24 returned a Kd in data set [3] of 6.9 nM.
